Measurements from paper PMC3558936 (Neuron, 2013).

Target: the molecule itself
Test: FRET or BRET

B1: Ciona intestinalis Hv1 (Ci-Hv1) D171A/S242C channel (natural protein, UniProt Q1JV40 1-342, looked up)
chain: MEGDNCNKSRHKSHNMINPNYASVRCTQPLPSVIQLRSRNKMIGITEDPSSDSEPVSSNQPLLLTNLSYEVHTFNDNNNHERPAPQEQSTQNTMISMQSEQKSDRFTASNLGMFQYMKFEIGEDGDDHEEEAILTNREKLRHILHSKPIHVAIIVLVVLDSFLVVGELLIALKVIIVPHGNPAPEILHGFSLSILSIFMVEIALKIIADHRHFIHHKVEVLDAVVVVISFGVDIALIFVGECEALAAIGLLVILRLWRVFRIINGIIVTVKTKADDRVHEIKKKNSELELQIHNLEEKLSQKEQDMSRLHEILRCNNIDIPPTVPLTTSVQIHSTTTASADV
modifications: Alexa488-maleimide (donor) or TMR-MTS (acceptor) on the introduced cysteine 242
- stoichiometry N: 2
